Results taken from publication PMC7290032 (Nature Communications, 2020).

Biological target: MCM8-9 complex, purified (human, UniProt Q9NXL9-1 1-1143; Q9UJA3-1 1-840)
Experiment: cell-based or functional assay

Sequence of MCM8-9 complex, purified (Q9NXL9 whole entry, chain 1 of 2): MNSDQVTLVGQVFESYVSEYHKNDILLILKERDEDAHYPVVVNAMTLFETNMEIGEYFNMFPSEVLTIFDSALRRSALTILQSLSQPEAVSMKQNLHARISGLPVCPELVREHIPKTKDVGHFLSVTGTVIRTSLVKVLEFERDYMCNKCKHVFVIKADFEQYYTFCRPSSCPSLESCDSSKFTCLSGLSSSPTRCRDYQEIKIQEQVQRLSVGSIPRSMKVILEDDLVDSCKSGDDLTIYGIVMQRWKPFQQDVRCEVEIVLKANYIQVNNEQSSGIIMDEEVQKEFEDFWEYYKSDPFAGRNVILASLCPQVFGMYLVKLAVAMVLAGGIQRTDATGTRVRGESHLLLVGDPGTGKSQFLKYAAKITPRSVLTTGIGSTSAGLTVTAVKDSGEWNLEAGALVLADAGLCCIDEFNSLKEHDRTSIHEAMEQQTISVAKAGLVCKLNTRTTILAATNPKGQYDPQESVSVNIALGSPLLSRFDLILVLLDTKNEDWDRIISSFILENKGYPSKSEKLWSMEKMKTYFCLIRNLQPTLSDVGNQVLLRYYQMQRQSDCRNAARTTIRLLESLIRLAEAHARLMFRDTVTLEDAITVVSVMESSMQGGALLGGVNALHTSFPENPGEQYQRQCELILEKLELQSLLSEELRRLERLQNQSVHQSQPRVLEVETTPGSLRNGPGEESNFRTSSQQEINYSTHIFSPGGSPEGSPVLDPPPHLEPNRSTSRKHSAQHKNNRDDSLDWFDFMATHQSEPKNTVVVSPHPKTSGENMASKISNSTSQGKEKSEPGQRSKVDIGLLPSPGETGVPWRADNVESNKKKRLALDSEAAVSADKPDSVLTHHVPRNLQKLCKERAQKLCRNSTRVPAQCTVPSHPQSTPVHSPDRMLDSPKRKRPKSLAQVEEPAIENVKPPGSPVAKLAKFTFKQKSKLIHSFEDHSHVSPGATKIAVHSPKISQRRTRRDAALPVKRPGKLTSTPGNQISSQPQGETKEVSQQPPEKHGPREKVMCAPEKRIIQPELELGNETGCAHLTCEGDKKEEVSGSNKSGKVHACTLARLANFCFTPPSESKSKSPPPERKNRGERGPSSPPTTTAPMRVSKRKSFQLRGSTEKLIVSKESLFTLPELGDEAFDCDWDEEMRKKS
Sequence of MCM8-9 complex, purified (Q9UJA3 whole entry, chain 2 of 2): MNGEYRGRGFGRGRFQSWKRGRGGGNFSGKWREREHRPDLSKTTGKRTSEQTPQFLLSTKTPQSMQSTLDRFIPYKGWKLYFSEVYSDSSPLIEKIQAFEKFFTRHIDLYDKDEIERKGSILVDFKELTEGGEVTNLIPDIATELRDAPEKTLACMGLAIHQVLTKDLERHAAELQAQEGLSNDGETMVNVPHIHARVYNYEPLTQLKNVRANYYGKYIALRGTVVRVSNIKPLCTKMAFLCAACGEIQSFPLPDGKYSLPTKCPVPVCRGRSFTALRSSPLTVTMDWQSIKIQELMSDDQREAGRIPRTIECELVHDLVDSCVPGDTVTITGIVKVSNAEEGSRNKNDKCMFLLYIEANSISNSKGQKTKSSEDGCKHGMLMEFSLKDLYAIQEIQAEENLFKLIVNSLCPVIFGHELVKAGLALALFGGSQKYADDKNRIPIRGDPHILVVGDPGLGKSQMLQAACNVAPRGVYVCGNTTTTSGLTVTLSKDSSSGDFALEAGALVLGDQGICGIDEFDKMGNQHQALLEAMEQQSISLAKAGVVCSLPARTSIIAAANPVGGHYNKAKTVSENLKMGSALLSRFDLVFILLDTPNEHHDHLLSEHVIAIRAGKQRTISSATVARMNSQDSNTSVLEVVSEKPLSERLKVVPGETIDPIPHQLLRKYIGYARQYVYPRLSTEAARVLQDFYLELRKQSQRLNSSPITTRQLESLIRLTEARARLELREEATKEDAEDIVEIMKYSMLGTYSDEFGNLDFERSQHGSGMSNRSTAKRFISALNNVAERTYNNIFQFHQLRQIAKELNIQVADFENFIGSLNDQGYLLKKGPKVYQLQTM

DNA unwinding (helicase assay): 32P-labelled oligo annealed to M13mp18 ssDNA, MCM8-9 100 nM, MCM8IP 50 nM, with ATP: ~6 fold
B1: MCM8IP-FLAG WT (recombinant) (natural protein, human, UniProt Q8N3J3-4 1-646, looked up)
chain: MACSLQKLFAVEEEFEDEDFLSAVEDAENRFTGSLPVNAGRLRPVSSRPQETVQAQSSRLLLLHPTAPSEALGLPDLDLCLPASSTPSADSRPSCIGAAPLRPVSTSSSWIGNQRRVTVTEVLRETARPQSSALHPLLTFESQQQQVGGFEGPEQDEFDKVLASMELEEPGMELECGVSSEAIPILPAQQREGSVLAKKARVVDLSGSCQKGPVPAIHKAGIMSAQDESLDPVIQCRTPRPPLRPGAVGHLPVPTALTVPTQQLHWEVCPQRSPVQALQPLQAARGTIQSSPQNRFPCQPFQSPSSWLSGKAHLPRPRTPNSSCSTPSRTSSGLFPRIPLQPQAPVSSIGSPVGTPKGPQGALQTPIVTNHLVQLVTAASRTPQQPTHPSTRAKTRRFPGPAGILPHQQSGRSLEDIMVSAPQTPTHGALAKFQTEIVASSQASVEEDFGRGPWLTMKSTLGLDERDPSCFLCTYSIVMVLRKAALKQLPRNKVPNMAVMIKSLTRSTMDASVVFKDPTGEMQGTVHRLLLETCQNELKPGSVLLLKQIGVFSPSLRNHYLNVTPNNLVHIYSPDSGDGSFLKPSQPFPKDSGSFQHDVAAKPEEGFRTAQNLEAEASPEEELPEADDLDGLLSELPEDFFCGTSS
